In assay [1] the target is T1, Fe65 N-term-WW-PID1-PID2 1-662 (human, UniProt O00213-2 1-662).
T1 sequence (looked up): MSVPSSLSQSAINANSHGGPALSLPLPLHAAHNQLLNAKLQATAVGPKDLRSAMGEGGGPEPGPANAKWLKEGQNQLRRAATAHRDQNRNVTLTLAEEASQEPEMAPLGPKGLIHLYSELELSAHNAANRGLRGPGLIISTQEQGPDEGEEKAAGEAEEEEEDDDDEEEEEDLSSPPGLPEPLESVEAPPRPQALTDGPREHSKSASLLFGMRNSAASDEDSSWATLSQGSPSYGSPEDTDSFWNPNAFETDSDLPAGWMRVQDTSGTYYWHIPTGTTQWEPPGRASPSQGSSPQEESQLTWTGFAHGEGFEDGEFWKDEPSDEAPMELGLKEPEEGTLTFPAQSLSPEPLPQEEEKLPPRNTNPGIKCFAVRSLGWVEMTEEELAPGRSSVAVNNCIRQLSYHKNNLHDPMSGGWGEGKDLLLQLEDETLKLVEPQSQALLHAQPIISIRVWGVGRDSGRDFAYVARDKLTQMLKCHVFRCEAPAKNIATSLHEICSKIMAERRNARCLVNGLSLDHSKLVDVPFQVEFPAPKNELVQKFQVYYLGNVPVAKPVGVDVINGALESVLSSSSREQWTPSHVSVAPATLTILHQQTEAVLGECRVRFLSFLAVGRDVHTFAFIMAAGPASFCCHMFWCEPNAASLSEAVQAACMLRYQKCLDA
Briefly: SPR. (SPR reads the build-up and loss of mass on a sensor chip optically.)

The target in assay [2] is T2, Fe65 WW-PID1-PID2 236-662 (human, UniProt O00213-2 236-662).
T2 sequence (looked up): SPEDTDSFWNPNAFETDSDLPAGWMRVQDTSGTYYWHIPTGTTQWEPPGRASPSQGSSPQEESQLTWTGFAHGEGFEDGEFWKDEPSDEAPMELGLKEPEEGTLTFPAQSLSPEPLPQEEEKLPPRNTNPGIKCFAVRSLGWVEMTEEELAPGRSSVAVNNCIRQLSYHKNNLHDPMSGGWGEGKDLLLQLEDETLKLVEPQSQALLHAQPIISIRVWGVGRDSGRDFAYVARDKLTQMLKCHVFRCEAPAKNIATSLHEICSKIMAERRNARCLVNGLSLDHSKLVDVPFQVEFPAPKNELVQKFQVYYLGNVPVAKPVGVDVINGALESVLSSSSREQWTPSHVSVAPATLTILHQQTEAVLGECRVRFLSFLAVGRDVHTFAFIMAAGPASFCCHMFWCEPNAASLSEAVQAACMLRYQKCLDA
Briefly: fluorescence polarisation. Background: Polarisation of emitted light reports the rotation of a fluorescent probe.

A further assay addresses T3, Fe65 WW-PID1 236-512 (human, UniProt O00213-2 236-512).
T3 sequence (looked up): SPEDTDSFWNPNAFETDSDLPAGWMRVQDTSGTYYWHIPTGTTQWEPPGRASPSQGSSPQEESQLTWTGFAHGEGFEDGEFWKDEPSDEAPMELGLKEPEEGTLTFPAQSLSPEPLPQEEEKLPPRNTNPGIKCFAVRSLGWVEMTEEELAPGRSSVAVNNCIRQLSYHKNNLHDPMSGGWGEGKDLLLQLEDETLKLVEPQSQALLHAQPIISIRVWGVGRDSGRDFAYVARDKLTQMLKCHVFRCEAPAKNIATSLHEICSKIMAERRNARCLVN
Briefly: fluorescence polarisation.

In general, Kd refers to the concentration at which binding is half-saturated.

Where no end group is shown, it is not given here. [ ]: non-standard residue; d: D form. pY = N[C@@H](Cc1ccc(OP(=O)(O)O)cc1)C(=O)O

B1: APP Intracellular Domain (AICD, residues 649-695), biotinylated at the N-terminal cysteine (domain or fragment)
chain: GSKLCKKKQYTSIHHGVVEVDAAVTPEERHLSKMQQNGYENPTYKFFEQMQN
modifications: biotin (biotin-maleimide) on the N-terminal cysteine
As to B1, the Kd in assay [1] was 2.5 ± 0.35 µM.

B2: LRP4488 phosphorylated at Y4507 (pYLRP4488) labeled with Oregon Green 488 (domain or fragment, human)
chain: C(Oregon Green 488 maleimide)LDADFALDPDKPTNFTNPV[pY]ATLYMGGHGSRHSLASTDEKRELLGRGPEDEIGDPLA
In the case of B2, the Kd in assay [2] stood at 48.3 µM; with Fe65 WW-PID1 236-512 it was 66.7 µM.

Values taken from article PMC3139566 (Biochemistry, 2011).
